± gives the standard error. For some of these results: Variants at the floor of the assay were thinned out.
B1: glmS ribozyme (parent)
chain: AUAAAAGCGCCAGAACUACAGAAAUGUAGUUGACGAGGAGGAGGUUUAUCGAAUUUUCGGCGGAUGCCUCCAAA

Legend:
Conditions in all cases: with glucosamine-6-phosphate
[1] = variants of: B1; assay: kcat; higher = faster cleavage; RNA array
How it was run: (§1)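 kobs was derived by fitting per-tile medians to one- or two-exponential decays after normalising signals to baseline and to non-cleaving reference variants. Those signals came from barcoded ribozyme variants transcribed in situ by E. coli RNA polymerase on sequenced MiSeq chips, followed through a hybridised Cy3 probe at 37 °C and imaged over ~14 h. Glucosamine-6-phosphate (40 μM to 10 mM) in HEPES/KCl/Mg(OAc)2 buffer was flowed in. Weighted Michaelis–Menten fits across concentrations then gave kcat and KM.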

[2] = variants of: B1; assay: KM; higher = weaker cofactor use; RNA array
How it was run: as §1

[3] = variants of: B1; assay: self-cleavage kobs at 160 uM GlcN6P; higher = faster cleavage; RNA array
How it was run: as §1

[4] = variants of: B1; assay: self-cleavage kobs at 640 uM GlcN6P; higher = faster cleavage; RNA array
How it was run: as §1

[5] = variants of: B1; assay: self-cleavage kobs at 2500 uM GlcN6P; higher = faster cleavage; RNA array
How it was run: as §1

[6] = variants of: B1; assay: self-cleavage kobs at 10000 uM GlcN6P; higher = faster cleavage; RNA array
How it was run: as §1

[7] = variants of: B1; assay: self-cleavage kobs at 40 uM GlcN6P; higher = faster cleavage; RNA array
How it was run: as §1

Variant | kcat [1] | KM [2] | self-cleavage kobs at 160 uM GlcN6P [3] | self-cleavage kobs at 640 uM GlcN6P [4] | self-cleavage kobs at 2500 uM GlcN6P [5] | self-cleavage kobs at 10000 uM GlcN6P [6] | self-cleavage kobs at 40 uM GlcN6P [7]
U45A C50A | 1.56e-05 ± 1.5e-06 s⁻¹ |  |  |  |  |  | 
G41C G66A | 0.00127 ± 0.00038 s⁻¹ | 4000 ± 1900 µM | 6.76e-05 ± 2.3e-05 s⁻¹ | 0.00013 ± 3.9e-05 s⁻¹ | 0.000621 ± 0.00011 s⁻¹ | 0.000851 ± 0.00016 s⁻¹ | 
G32A C58A C68U | 0.000878 ± 0.00034 s⁻¹ |  |  | 8.56e-05 ± 1.4e-05 s⁻¹ | 0.000172 ± 7.4e-05 s⁻¹ | 0.000572 ± 0.00012 s⁻¹ | 
U31G A52G | 0.000431 ± 4.6e-05 s⁻¹ | 2820 ± 530 µM |  | 8.36e-05 ± 1.2e-05 s⁻¹ | 0.000178 ± 3.1e-05 s⁻¹ | 0.000352 ± 4.6e-05 s⁻¹ | 
C67U C70A | 1.69e-05 ± 4.5e-06 s⁻¹ |  |  |  |  |  | 
U55A C68A | 7.99e-05 ± 1.6e-05 s⁻¹ |  | 6.93e-05 ± 1.2e-05 s⁻¹ | 8.04e-05 ± 2.1e-05 s⁻¹ | 6.96e-05 ± 1.3e-05 s⁻¹ |  | 
C16G U65G | 0.00228 ± 0.0011 s⁻¹ |  | 6.11e-05 ± 1.6e-05 s⁻¹ | 0.000149 ± 6.2e-05 s⁻¹ | 0.000455 ± 0.00013 s⁻¹ | 0.00143 ± 0.00036 s⁻¹ | 
C58A G60C C67G | 1.21e-05 ± 3.8e-06 s⁻¹ |  |  |  |  |  | 
G43A U56A | 1.8e-05 ± 3.9e-06 s⁻¹ |  |  |  |  |  | 
U57C U69G | 2.77e-05 ± 6.2e-06 s⁻¹ |  | 3.31e-05 ± 1.4e-05 s⁻¹ | 3.38e-05 ± 1.3e-05 s⁻¹ |  |  | 
A53U U57G | 0.000158 ± 2.7e-05 s⁻¹ | 4010 ± 1600 µM |  | 3.61e-05 ± 1.4e-05 s⁻¹ | 5.56e-05 ± 1e-05 s⁻¹ | 0.000115 ± 1.4e-05 s⁻¹ | 
A6U A52U | < 1e-05 s⁻¹ |  | < 1e-05 s⁻¹ |  |  | < 1e-05 s⁻¹ | 
A53C U55G | 0.00572 ± 0.0016 s⁻¹ | 1640 ± 730 µM | 0.000551 ± 9.1e-05 s⁻¹ | 0.00138 ± 0.00025 s⁻¹ | 0.00261 ± 0.00039 s⁻¹ | 0.00667 ± 0.00076 s⁻¹ | 0.000162 ± 2.2e-05 s⁻¹
G13C U69G | 5.45e-05 ± 1.1e-05 s⁻¹ |  | 4.33e-05 ± 1.6e-05 s⁻¹ | 9.44e-05 ± 2.5e-05 s⁻¹ | 4.52e-05 ± 1.2e-05 s⁻¹ |  | 3.61e-05 ± 1.3e-05 s⁻¹
A14U C68U | 0.00143 ± 0.00047 s⁻¹ |  | 6.57e-05 ± 1.2e-05 s⁻¹ | 0.000297 ± 3.8e-05 s⁻¹ | 0.000422 ± 6.8e-05 s⁻¹ | 0.00123 ± 0.00011 s⁻¹ | 2.73e-05 ± 7.7e-06 s⁻¹
G41A C70G | 0.000368 ± 0.00014 s⁻¹ |  | 6.45e-05 ± 1.1e-05 s⁻¹ | 0.000156 ± 1.6e-05 s⁻¹ | 0.000332 ± 4e-05 s⁻¹ |  | 4.43e-05 ± 8e-06 s⁻¹
U47C C50U | 4.46e-05 ± 3.5e-07 s⁻¹ | 1670 ± 52 µM |  |  | 2.69e-05 ± 1.3e-05 s⁻¹ | 3.82e-05 ± 1.1e-05 s⁻¹ | 
G32A A53G | 0.00285 ± 0.00095 s⁻¹ | 1980 ± 950 µM | 0.000222 ± 3.2e-05 s⁻¹ | 0.00114 ± 0.0002 s⁻¹ | 0.00106 ± 0.00021 s⁻¹ | 0.00294 ± 0.00036 s⁻¹ | 5.52e-05 ± 9e-06 s⁻¹

Source: the supplement of paper PMC7125110
